Experimental data: the Human Domainome abundance scans (Beltran et al. 2025)

B1: Zinc finger MYM-type protein 6, residues 427 to 504; numbered along this chain, O95789 (parent)
chain: KLKCQHCNHLFATKPELLFYKGKMFLFCGKNCSDEYKKKNKVVAMCDYCKLQKIIKETVRFSGVDKPFCSEVCKFLSA

Variants of: B1
Test: abundance fitness (aPCA) (normalised: wild type 0, dead -1); higher = more abundant; growth selection in yeast, the domain comes from the species named
Conditions: Homo sapiens

Abundance fitness of substitutions, site by site:
K21: C -0.036, H -0.018, M -0.031, Y -0.099, F -0.03, L -0.007, Q -0.03, E 0.008, G 0.019, W -0.133, R -0.025, S 0.012, V -0.155, N -0.03, A 0.001, D -0.004
V43: G -0.224, E -0.064, K 0.542, L -0.7, A -0.423, R -0.224, M 0.55, W -0.416, D -0.271, H -0.763, N 0.239
Y36: H -0.005, K -0.661, R -0.26, W -0.042, M -0.093, C -0.187, G -0.183, T -0.169, V -0.15, Q -0.13, N -0.172, D -0.453, L -0.181, A -0.074
K38: G -0.026, S -0.027, V -0.018, L -0.088, Q -0.053, W -0.136, D -0.114, P -0.163, T -0.014, M -0.063, A 0.023, E -0.014
C32: E -1.01, W -0.861, L -1.05, S -1.01, T -1.29, P -1.05, Q -0.944, D -0.607, G -1.02, V -0.919
G22: D -0.215, F -0.254, E 0.049, W -0.226, L -0.231, M -0.118, Q -0.011, S -0.049, P -0.33, C -0.063, A -0.065, V -0.255, T -0.054
D34: S -0.056, G -0.078, N -0.527, W -0.156, Q -0.034, L -0.14, P -0.691, A -0.037, M -0.091, T -0.133, R -0.068, V -0.017, E -0.033
F19: A 0.057, S 0.033, T -0.03, D 0.126, E 0.129, P 0.101, I -0.152, M -0.196, W -0.005, Q 0.081, K 0.182, G -0.053, R 0.103
S33: G -0.141, L -0.089, E -0.025, R -0.061, Y -0.14, M -0.042, D -0.217, V -0.054, P -0.343, W -0.114, Q 0.017, H -0.192, T -0.127, A -0.032, F -0.289, C -0.077
L26: T 0.035, C 0.004, M -0.015, V 0.037, P -0.03, K 0.09, F -0.148, Q 0.166, N 0.097, S 0.054, G 0.125, W -0.053, D -0.066, A 0.05, E 0.118, R 0.089
E35: V -0.07, Q -0.082, M -0.054, P -0.331, D -0.047, C -0.402, T -0.127, G -0.007, Y -0.108, R -0.021, L -0.096, W -0.11, A -0.024
G29: W -0.602, P -0.683, K -0.004, C -0.096, S -0.123, H -0.333, Q -0.09, V -0.204, R -0.104, E -0.131, D -0.386, L -0.345, T -0.145, M -0.084, A -0.033
F27: I -0.365, Q -0.527, T -0.161, S -0.459, K -0.727, E -0.508, H -0.405, L -0.073, G -0.545, W -0.372, V -0.161, D -0.553, M -0.066, N -0.512, C -0.025, R -0.805
K37: T -0.099, D -0.057, W -0.099, A 0.004, V -0.029, L -0.134, S -0.068, G -0.027, Q 0.051, N 0.097, R -0.046, M -0.214, C -0.074, P -0.114
C28: N -0.367, W -1, S -0.969, K -0.731, Q -1.28, F -0.855, G -0.866, E -0.671, H -0.608, R -0.877, L -0.859, A -1, D -0.352, M -0.752, V -1.1
K23: N -0.001, A -0.045, Q -0.097, W -0.419, E 0.062, T -0.036, L -0.067, G -0.067, V -0.091, I -0.129, H -0.048, S -0.058, M -0.041, D -0.09, C -0.172, F -0.15
Y20: F 0.054, T 0.019, R -0.121, H -0.079, M -0.062, L 0, K -0.123, Q -0.01, G -0.078, N -0.059, D -0.033, I 0.031, A 0.031, C -0.023
K39: P -0.055, V -0.023, C -0.163, H -0.078, T -0.058, W -0.099, A 0.029, R -0.004, M -0.087, Q -0.043, L -0.107, S 0.003, E -0.012, G 0.005, Y 0.024
M24: E 0.111, I 0.19, Y -0.249, V -0.172, C -0.004, R 0.13, W -0.065, D 0, G -0.059, P 0.034, A -0.083, S 0.012, T 0.118, L -0.109, Q 0.101
K30: D -0.138, H -0.063, W -0.146, P -0.107, F -0.101, T -0.123, L -0.061, Q -0.096, C -0.24, I 0.021, Y -0.028, M -0.059, G -0.032, E -0.037, S -0.049
F25: A 0.033, P -0.17, V -0.009, G -0.028, C -0.004, M 0.048, D -0.031, E -0.049, I -0.126, K -0.067, S -0.036, H -0.109, L 0.043, W -0.027
L18: Q -0.042, W -0.019, T -0.081, K -0.059, V -0.02, R -0.077, P -0.307, C -0.113, I -0.159, G -0.033
N31: C -0.1, R 0.012, S -0.042, Q -0.036, P -0.018, Y -0.134, W -0.054, G -0.026, V -0.077, A -0.078, E -0.058, H 0.062, F -0.229, L -0.067
N40: D 0.019, A -0.02, G -0.086, C -0.135, T -0.014, S 0.049, V -0.03, L -0.191, P -0.172, E -0.071, K -0.105, R -0.045, Y -0.24, H -0.104
